In patent US20060008846A1 (RESEARCH DEVELOPMENT FOUNDATION, published 2006):

Assays:
[1] = target: T1, ALK4 (activin type I receptor) (UniProt P36896); test: cell-based or functional assay
T1 sequence (looked up): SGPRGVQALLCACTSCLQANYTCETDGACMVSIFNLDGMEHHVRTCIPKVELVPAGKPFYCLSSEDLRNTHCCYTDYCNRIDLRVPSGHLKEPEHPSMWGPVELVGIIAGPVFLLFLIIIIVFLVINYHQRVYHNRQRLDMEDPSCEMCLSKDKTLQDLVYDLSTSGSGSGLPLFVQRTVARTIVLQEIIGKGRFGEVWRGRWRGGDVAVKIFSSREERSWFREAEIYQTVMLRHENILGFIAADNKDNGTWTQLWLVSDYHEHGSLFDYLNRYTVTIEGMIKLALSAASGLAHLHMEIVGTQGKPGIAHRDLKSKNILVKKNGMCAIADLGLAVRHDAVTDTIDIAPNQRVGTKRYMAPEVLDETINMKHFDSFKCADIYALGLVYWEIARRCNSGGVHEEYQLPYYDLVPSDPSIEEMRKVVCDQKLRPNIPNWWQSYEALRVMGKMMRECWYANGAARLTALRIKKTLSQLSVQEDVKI

[2] = target: T2, ALK4 (activin type I receptor) (UniProt P36896 24-505, limits assumed); test: cell-based or functional assay
T2 sequence (looked up): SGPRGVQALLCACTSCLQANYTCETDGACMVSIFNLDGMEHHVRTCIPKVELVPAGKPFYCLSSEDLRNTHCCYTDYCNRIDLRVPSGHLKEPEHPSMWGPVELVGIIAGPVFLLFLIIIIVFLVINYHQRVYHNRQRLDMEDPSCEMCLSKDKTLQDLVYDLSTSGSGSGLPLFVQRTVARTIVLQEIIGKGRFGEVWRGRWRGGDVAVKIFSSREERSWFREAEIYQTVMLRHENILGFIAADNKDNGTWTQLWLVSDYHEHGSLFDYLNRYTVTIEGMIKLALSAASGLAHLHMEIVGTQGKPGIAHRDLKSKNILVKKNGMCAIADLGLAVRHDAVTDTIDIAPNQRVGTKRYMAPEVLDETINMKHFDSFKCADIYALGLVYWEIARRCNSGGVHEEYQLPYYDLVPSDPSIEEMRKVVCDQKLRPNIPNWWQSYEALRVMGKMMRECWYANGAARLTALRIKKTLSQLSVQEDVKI

Row | Binder | % Activin Activity (A3-luciferase assay in 293T cells) (% of wild type activin-A) [1] | % Activin Activity (A3-luciferase assay in 293T cells) [2]
1 | activin-A S57A (ligand, human, UniProt P08476 311-426, looked up) GLECDGKVNICCKKQFFVSFKDIGWNDWIIAPSGYHANYCEGECPSHIAGTSGSSLAFHSTVINHYRMRGHSPFANLKSCCVPTKLRPMSMLYYDDGQNIIKKDIQNMIVEECGCS | 101 | –
2 | activin-A G50A/T51A (ligand, human, UniProt P08476 311-426, looked up) GLECDGKVNICCKKQFFVSFKDIGWNDWIIAPSGYHANYCEGECPSHIAAASGSSLSFHSTVINHYRMRGHSPFANLKSCCVPTKLRPMSMLYYDDGQNIIKKDIQNMIVEECGCS | 83 | –
3 | activin-A V62A/I63A (ligand, human, UniProt P08476 311-426, looked up) GLECDGKVNICCKKQFFVSFKDIGWNDWIIAPSGYHANYCEGECPSHIAGTSGSSLSFHSTAANHYRMRGHSPFANLKSCCVPTKLRPMSMLYYDDGQNIIKKDIQNMIVEECGCS | 83 | –
4 | activin-A H59P (ligand, human, UniProt P08476 311-426, looked up) GLECDGKVNICCKKQFFVSFKDIGWNDWIIAPSGYHANYCEGECPSHIAGTSGSSLSFPSTVINHYRMRGHSPFANLKSCCVPTKLRPMSMLYYDDGQNIIKKDIQNMIVEECGCS | 85 | –
5 | activin-A S90A (ligand, human, UniProt P08476 311-426, looked up) GLECDGKVNICCKKQFFVSFKDIGWNDWIIAPSGYHANYCEGECPSHIAGTSGSSLSFHSTVINHYRMRGHSPFANLKSCCVPTKLRPMAMLYYDDGQNIIKKDIQNMIVEECGCS | 59 | –
6 | activin-A H65A/M68A (ligand, human, UniProt P08476 311-426, looked up) GLECDGKVNICCKKQFFVSFKDIGWNDWIIAPSGYHANYCEGECPSHIAGTSGSSLSFHSTVINAYRARGHSPFANLKSCCVPTKLRPMSMLYYDDGQNIIKKDIQNMIVEECGCS | 82 | –
7 | activin-A R69A/G70A/H71A (ligand, human, UniProt P08476 311-426, looked up) GLECDGKVNICCKKQFFVSFKDIGWNDWIIAPSGYHANYCEGECPSHIAGTSGSSLSFHSTVINHYRMAAASPFANLKSCCVPTKLRPMSMLYYDDGQNIIKKDIQNMIVEECGCS | 82 | –
8 | activin-A A31Q (ligand, human, UniProt P08476 311-426, looked up) GLECDGKVNICCKKQFFVSFKDIGWNDWIIQPSGYHANYCEGECPSHIAGTSGSSLSFHSTVINHYRMRGHSPFANLKSCCVPTKLRPMSMLYYDDGQNIIKKDIQNMIVEECGCS | 84 | –
9 | activin-A V62P (ligand, human, UniProt P08476 311-426, looked up) GLECDGKVNICCKKQFFVSFKDIGWNDWIIAPSGYHANYCEGECPSHIAGTSGSSLSFHSTPINHYRMRGHSPFANLKSCCVPTKLRPMSMLYYDDGQNIIKKDIQNMIVEECGCS | 64 | –
10 | activin-A F58A/H59A (ligand, human, UniProt P08476 311-426, looked up) GLECDGKVNICCKKQFFVSFKDIGWNDWIIAPSGYHANYCEGECPSHIAGTSGSSLSAASTVINHYRMRGHSPFANLKSCCVPTKLRPMSMLYYDDGQNIIKKDIQNMIVEECGCS | 126 | –
11 | activin-A W25A (ligand, human, UniProt P08476 311-426, looked up) GLECDGKVNICCKKQFFVSFKDIGANDWIIAPSGYHANYCEGECPSHIAGTSGSSLSFHSTVINHYRMRGHSPFANLKSCCVPTKLRPMSMLYYDDGQNIIKKDIQNMIVEECGCS | 73 | –
12 | A/C-1 chimeric activin A/activin C protein (ligand, human, UniProt P08476 311-426, looked up) GLECDGKVNICCKKQFFVSFKDIGWNDWIIAPSGYHANYCEGECPLHIAGMPGIAASFHSTVINHYRMRGHSPFANLKSCCVPTKLRPMSMLYYDDGQNIIKKDIQNMIVEECGCS | 104 | –
13 | activin-A I105A (ligand, human, UniProt P08476 311-426, looked up) GLECDGKVNICCKKQFFVSFKDIGWNDWIIAPSGYHANYCEGECPSHIAGTSGSSLSFHSTVINHYRMRGHSPFANLKSCCVPTKLRPMSMLYYDDGQNIIKKDAQNMIVEECGCS | 86 | –
14 | activin-A T61P (ligand, human, UniProt P08476 311-426, looked up) GLECDGKVNICCKKQFFVSFKDIGWNDWIIAPSGYHANYCEGECPSHIAGTSGSSLSFHSPVINHYRMRGHSPFANLKSCCVPTKLRPMSMLYYDDGQNIIKKDIQNMIVEECGCS | 78 | –
15 | activin-A Y35A (ligand, human, UniProt P08476 311-426, looked up) GLECDGKVNICCKKQFFVSFKDIGWNDWIIAPSGAHANYCEGECPSHIAGTSGSSLSFHSTVINHYRMRGHSPFANLKSCCVPTKLRPMSMLYYDDGQNIIKKDIQNMIVEECGCS | 101 | –
16 | activin-A S60A/T61A (ligand, human, UniProt P08476 311-426, looked up) GLECDGKVNICCKKQFFVSFKDIGWNDWIIAPSGYHANYCEGECPSHIAGTSGSSLSFHAAVINHYRMRGHSPFANLKSCCVPTKLRPMSMLYYDDGQNIIKKDIQNMIVEECGCS | 97 | –
17 | activin-A L92A (ligand, human, UniProt P08476 311-426, looked up) GLECDGKVNICCKKQFFVSFKDIGWNDWIIAPSGYHANYCEGECPSHIAGTSGSSLSFHSTVINHYRMRGHSPFANLKSCCVPTKLRPMSMAYYDDGQNIIKKDIQNMIVEECGCS | 35 | –
18 | A/C-2.1 chimeric activin A/activin C protein (ligand, human, UniProt P08476 311-426, looked up) GLECDGKVNICCKKQFFVSFKDIGWNDWIIAPSGYHANYCEGECPSHIAGTSGSSLSFHTAVLNHYRMRGHSPFANLKSCCVPTKLRPMSMLYYDDGQNIIKKDIQNMIVEECGCS | 81 | –
19 | A/C-2.3 chimeric activin A/activin C protein (ligand, human, UniProt P08476 311-426, looked up) GLECDGKVNICCKKQFFVSFKDIGWNDWIIAPSGYHANYCEGECPSHIAGTSGSSLSFHSTVINHLKANTHSPFANLKSCCVPTKLRPMSMLYYDDGQNIIKKDIQNMIVEECGCS | 87 | –
20 | A/C-2.4 chimeric activin A/activin C protein (ligand, human, UniProt P08476 311-426, looked up) GLECDGKVNICCKKQFFVSFKDIGWNDWIIAPSGYHANYCEGECPSHIAGTSGSSLSFHSTVINHYRANTAAPFANLKSCCVPTKLRPMSMLYYDDGQNIIKKDIQNMIVEECGCS | 79 | –
21 | activin-A S55A/L56A (ligand, human, UniProt P08476 311-426, looked up) GLECDGKVNICCKKQFFVSFKDIGWNDWIIAPSGYHANYCEGECPSHIAGTSGSAASFHSTVINHYRMRGHSPFANLKSCCVPTKLRPMSMLYYDDGQNIIKKDIQNMIVEECGCS | 101 | –
22 | A/C-2.2 chimeric activin A/activin C protein (ligand, human, UniProt P08476 311-426, looked up) GLECDGKVNICCKKQFFVSFKDIGWNDWIIAPSGYHANYCEGECPSHIAGTSGSSLSFHSTVLNLLKMRGHSPFANLKSCCVPTKLRPMSMLYYDDGQNIIKKDIQNMIVEECGCS | 107 | –
23 | activin-A M91A (ligand, human, UniProt P08476 311-426, looked up) GLECDGKVNICCKKQFFVSFKDIGWNDWIIAPSGYHANYCEGECPSHIAGTSGSSLSFHSTVINHYRMRGHSPFANLKSCCVPTKLRPMSALYYDDGQNIIKKDIQNMIVEECGCS | 74 | –
24 | activin-A S52A/G53A/S54A (ligand, human, UniProt P08476 311-426, looked up) GLECDGKVNICCKKQFFVSFKDIGWNDWIIAPSGYHANYCEGECPSHIAGTAAASLSFHSTVINHYRMRGHSPFANLKSCCVPTKLRPMSMLYYDDGQNIIKKDIQNMIVEECGCS | 99 | –
25 | activin-A N76A/L77A/K78A/S79A (ligand, human, UniProt P08476 311-426, looked up) GLECDGKVNICCKKQFFVSFKDIGWNDWIIAPSGYHANYCEGECPSHIAGTSGSSLSFHSTVINHYRMRGHSPFAAAAACCVPTKLRPMSMLYYDDGQNIIKKDIQNMIVEECGCS | 82 | –
26 | activin-A S57P (ligand, human, UniProt P08476 311-426, looked up) GLECDGKVNICCKKQFFVSFKDIGWNDWIIAPSGYHANYCEGECPSHIAGTSGSSLPFHSTVINHYRMRGHSPFANLKSCCVPTKLRPMSMLYYDDGQNIIKKDIQNMIVEECGCS | 83 | –
27 | activin-A P45A/S46A/H47A/I48A (ligand, human, UniProt P08476 311-426, looked up) GLECDGKVNICCKKQFFVSFKDIGWNDWIIAPSGYHANYCEGECAAAAAGTSGSSLSFHSTVINHYRMRGHSPFANLKSCCVPTKLRPMSMLYYDDGQNIIKKDIQNMIVEECGCS | 91 | –
28 | activin-A A49G (ligand, human, UniProt P08476 311-426, looked up) GLECDGKVNICCKKQFFVSFKDIGWNDWIIAPSGYHANYCEGECPSHIGGTSGSSLSFHSTVINHYRMRGHSPFANLKSCCVPTKLRPMSMLYYDDGQNIIKKDIQNMIVEECGCS | 82 | –
29 | A/C-2 chimeric activin A/activin C protein (ligand, human, UniProt P08476 311-426, looked up) GLECDGKVNICCKKQFFVSFKDIGWNDWIIAPSGYHANYCEGECPSHIAGTSGSSLSFHTAVLNLLKANTAAPFANLKSCCVPTKLRPMSMLYYDDGQNIIKKDIQNMIVEECGCS | – | 17 % of wild type activin-A
